Source: patent US20230080224A1 (AGENCY FOR SCIENCE TECHNOLOGY AND RESEARCH, published 2023)

T1: human ALPL expressed on cells (human, UniProt P05186 18-501)
T1 construct: whole, on cells
T1 sequence (looked up): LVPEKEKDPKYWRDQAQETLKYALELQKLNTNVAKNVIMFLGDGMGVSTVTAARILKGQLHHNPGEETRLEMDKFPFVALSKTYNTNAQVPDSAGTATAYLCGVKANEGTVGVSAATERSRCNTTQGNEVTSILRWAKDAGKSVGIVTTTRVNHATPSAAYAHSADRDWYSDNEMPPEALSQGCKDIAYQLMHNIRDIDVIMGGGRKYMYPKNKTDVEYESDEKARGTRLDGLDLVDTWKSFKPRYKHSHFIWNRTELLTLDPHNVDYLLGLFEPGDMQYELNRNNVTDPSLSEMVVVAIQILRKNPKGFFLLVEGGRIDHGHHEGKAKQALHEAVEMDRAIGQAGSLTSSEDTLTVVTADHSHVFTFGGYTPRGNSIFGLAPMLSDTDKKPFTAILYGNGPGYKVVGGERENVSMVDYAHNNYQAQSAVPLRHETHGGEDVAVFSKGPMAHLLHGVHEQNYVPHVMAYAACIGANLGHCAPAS

T2: human ALPI expressed on cells (human, UniProt P09923 20-503)
T2 construct: whole, on cells
T2 sequence (looked up): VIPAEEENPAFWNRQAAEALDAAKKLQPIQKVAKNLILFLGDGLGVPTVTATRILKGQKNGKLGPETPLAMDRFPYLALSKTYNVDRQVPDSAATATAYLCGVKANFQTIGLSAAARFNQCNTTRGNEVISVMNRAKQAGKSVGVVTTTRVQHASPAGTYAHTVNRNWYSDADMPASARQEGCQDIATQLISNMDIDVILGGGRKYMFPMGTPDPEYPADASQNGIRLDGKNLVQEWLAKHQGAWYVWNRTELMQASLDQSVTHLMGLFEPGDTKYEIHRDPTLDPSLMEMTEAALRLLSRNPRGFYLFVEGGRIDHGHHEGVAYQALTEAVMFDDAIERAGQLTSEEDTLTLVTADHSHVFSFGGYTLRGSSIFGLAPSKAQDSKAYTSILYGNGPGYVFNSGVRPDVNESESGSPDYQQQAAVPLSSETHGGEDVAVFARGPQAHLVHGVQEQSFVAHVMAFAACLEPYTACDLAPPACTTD

T3: human ALPPL2 (recombinant protein) (human, UniProt P10696 20-503)
T3 chain: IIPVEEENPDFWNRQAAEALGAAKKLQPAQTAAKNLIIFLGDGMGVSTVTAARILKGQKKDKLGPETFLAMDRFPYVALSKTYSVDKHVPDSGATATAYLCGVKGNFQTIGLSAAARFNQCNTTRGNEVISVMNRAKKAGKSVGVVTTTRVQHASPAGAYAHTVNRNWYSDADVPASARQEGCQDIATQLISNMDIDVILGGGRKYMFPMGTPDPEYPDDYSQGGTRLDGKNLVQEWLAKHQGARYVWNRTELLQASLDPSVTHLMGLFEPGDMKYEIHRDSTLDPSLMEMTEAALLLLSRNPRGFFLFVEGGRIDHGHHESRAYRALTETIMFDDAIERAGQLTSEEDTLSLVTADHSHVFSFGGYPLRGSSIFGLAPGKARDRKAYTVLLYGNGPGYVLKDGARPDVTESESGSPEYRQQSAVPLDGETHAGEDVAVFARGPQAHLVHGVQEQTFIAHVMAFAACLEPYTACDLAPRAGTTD

T4: ALPI (screening and SPR/ELISA protein) (UniProt P09923 20-503, limits assumed)
T4 sequence (looked up): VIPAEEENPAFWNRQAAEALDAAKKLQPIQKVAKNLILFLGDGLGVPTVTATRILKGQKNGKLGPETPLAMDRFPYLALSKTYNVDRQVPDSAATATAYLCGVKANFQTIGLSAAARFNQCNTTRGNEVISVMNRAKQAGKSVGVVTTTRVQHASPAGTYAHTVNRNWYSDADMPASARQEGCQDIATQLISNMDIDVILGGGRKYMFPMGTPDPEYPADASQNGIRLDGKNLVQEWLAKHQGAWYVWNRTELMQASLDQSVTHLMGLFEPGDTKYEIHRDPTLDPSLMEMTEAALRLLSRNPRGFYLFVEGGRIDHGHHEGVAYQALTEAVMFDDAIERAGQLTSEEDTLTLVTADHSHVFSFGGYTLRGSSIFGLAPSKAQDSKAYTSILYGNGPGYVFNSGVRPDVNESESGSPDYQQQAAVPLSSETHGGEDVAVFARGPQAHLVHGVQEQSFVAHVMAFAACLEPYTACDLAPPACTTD


How the values were obtained:
[1] = molecular target: human ALPP (recombinant protein) (human, UniProt P05187 23-506, limits assumed); assay: biolayer interferometry, biotinylated ligand on SA biosensors (FIG. 12G)
human ALPP (recombinant protein), sequence (P05187 23-506 limits assumed): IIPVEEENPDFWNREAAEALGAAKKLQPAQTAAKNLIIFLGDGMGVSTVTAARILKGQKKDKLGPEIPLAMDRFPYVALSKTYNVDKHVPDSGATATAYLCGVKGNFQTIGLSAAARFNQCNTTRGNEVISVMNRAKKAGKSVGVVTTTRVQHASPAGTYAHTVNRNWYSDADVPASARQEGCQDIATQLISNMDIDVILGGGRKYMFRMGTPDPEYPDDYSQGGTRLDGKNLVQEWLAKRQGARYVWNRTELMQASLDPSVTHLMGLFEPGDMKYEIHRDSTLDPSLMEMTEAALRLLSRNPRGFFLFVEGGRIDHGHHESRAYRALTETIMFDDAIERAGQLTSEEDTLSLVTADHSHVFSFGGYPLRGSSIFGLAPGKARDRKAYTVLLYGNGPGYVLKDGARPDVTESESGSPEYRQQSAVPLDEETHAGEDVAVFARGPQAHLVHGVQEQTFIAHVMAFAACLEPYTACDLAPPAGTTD
Experimental: Chimerized C53 is also cross-reactive towards rhesus macaque ortholog. Binding affinity of humanized C53 as compared to humanized C36 to ALPPL and ALPP was performed using Biolayer Interferometry. In this technique, biotinylated ligands (i.e. ALPPL2 or ALPP) were immobilized on SA biosensors. Ligands-loaded sensors were then incubated with different concentrations of analyte (recombinantly expressed humanized antibody clones) in the buffer.

[2] = molecular target: T5, human ALPPL2 (recombinant protein) (human, UniProt P10696 20-503, limits assumed); assay: SPR, Biacore T200, ligand captured by streptavidin on CM5 chip, antibody as analyte
T5 construct: biotinylated where captured on streptavidin
Experimental: Select clones (C4, C15, C131, C12, C18, C36 and C53) were humanized by grafting the CDRs to a human IgG1 framework. […] Surface plasmon resonance was studied using Biacore T200. Ligands (e.g. ALPPL2 or ALPP) were immobilized on biosensors CM5 chips captured with the streptavidin. Ligands-loaded sensors were then incubated with different concentrations of analyte (recombinant expressed humanized antibody clones) to measure affinity.

[3] = molecular target: T1, human ALPL expressed on cells; assay: FACS on transiently transfected 293T cells (FIG. 13A)
[4] = molecular target: T6, human ALPP expressed on cells (human, UniProt P05187 23-506); assay: as above
T6 construct: whole, on cells
T6 sequence (P05187 23-506): as the sequence (P05187 23-506 limits assumed) above

[5] = molecular target: T2, human ALPI expressed on cells; assay: as above
[6] = molecular target: T3, human ALPPL2 (recombinant protein); assay: BLI
[7] = molecular target: T7, human ALPPL2 expressed on cells (human, UniProt P10696 20-503); assay: FACS (FIG. 13)
T7 construct: whole, on cells; also called placental-like alkaline phosphatase

[8] = molecular target: T6, human ALPP expressed on cells; assay: FACS (FIG. 12A)
[9] = molecular target: T7, human ALPPL2 expressed on cells; assay: FACS (FIG. 12A)
[10] = molecular target: T3, human ALPPL2 (recombinant protein); assay: BLI; single concentration
[11] = molecular target: T5, human ALPPL2 (recombinant protein); assay: screen of rabbit B-cell clones by ELISA and FACS
Excerpt: (§1) Specific clones were screened and identified by ELISA and high throughput flow cytometry (FIG. 3). Rabbit kidney cells were transfected with either truncated (for ELISA screen) or full-length (for FACS screen) ALPI and ALPPL2.

[12] = molecular target: T4, ALPI (screening and SPR/ELISA protein); assay: screen of rabbit B-cell clones by ELISA and FACS
Excerpt: as §1

Row | binding result [1] | binding result [2] | binding result [3] | binding result [4] | binding result [5] | Kd [6] [nM] | binding result [7] | binding result [8] | binding result [9] | Kd [10] [pM] | binding result [11] | binding result [12] | Binder
1 | no binding | binds | no binding | no binding | no binding | 1 | binds | – | – | – | – | – | humanized C53 (antibody, human IgG1, V domains shown, CDRs grafted to a human IgG1 framework; recombinant; also called hC53) VH: EVQLVESGGGLVQPGGSLRLSCAASGFSFSSGYDMCWVRQAPGKGLEWIACIHSSSGTTYYASWAKGRFTISRDNSKNTLYLQMNSLRAEDTAVYYCARDFSYTDDYISYVYATDLWGQGTLVTVSS VL: DIQMTQSPSSLSASVGDRVTITCQASQSIGSSLAWYQQKPGKVPKLLIYAASYLASGVPSRFSGSGSGTDFTLTISSLQPEDVATYYCQSTYYSSSTDIRAFGQGTKVEIK
2 | – | – | – | – | – | – | – | binds | binds | 1 | binds | no binding | AB1C4 (antibody, V domains shown, Rabbit antibody cloned from a single B cell; also called rabbit C4) VH: QSLEESGGDLVKPGPSLTLTCKASGFTISNNYWICWVRQAPGKGLEWIGCIATGDGSTYYASWAKGRFTISKTSSTTVTLQMTSLTAADTATYFCARGAAGSSWTTYFDFWGPGTPVTVSS VL: DIVMTQTPASVEAAVGGTVTIKCQAGQNIDNYLSWYQQKPGQPPKLLIYRASTLASGVPSRFKGSGSGTEFTLTISDLECADAATYYCQNNNGGSTFTGFPFGGGTEVVVK
